Key:
Assay in all cases: cleavage_in_vitro
[1] = target: T1, HpaI (Haemophilus parainfluenzae) (UniProt P29537); conditions: NEB4, 37 C, Mg2+; FI NEB1-3: 32, 1, 2
T1 sequence: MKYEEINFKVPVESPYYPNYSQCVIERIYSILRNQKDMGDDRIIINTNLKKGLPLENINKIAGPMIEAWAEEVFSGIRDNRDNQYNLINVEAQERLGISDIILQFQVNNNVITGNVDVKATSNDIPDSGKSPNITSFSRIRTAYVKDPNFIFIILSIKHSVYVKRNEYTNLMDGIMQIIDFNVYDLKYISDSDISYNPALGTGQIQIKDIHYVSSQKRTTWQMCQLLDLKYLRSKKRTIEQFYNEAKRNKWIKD

[2] = tested on: T2, BsmBI (Bacillus stearothermophilus); conditions: NEB4, 55 C, Mg2+; FI NEB1-3: 1, 8, 120
T2 sequence: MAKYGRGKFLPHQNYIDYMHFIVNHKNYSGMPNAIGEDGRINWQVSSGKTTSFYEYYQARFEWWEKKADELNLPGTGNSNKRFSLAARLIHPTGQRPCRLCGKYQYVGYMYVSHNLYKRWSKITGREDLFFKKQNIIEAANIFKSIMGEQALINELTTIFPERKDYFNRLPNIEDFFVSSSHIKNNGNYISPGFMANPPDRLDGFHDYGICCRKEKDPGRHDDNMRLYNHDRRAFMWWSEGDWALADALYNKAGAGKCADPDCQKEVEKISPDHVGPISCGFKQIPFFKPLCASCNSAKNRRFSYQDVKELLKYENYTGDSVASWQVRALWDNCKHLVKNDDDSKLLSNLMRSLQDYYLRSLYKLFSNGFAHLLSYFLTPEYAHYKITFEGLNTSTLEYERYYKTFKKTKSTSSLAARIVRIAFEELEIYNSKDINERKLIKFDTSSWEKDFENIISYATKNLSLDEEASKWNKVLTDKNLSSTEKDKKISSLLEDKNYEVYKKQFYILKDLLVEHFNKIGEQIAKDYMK

[3] = tested on: BstXI-HF N65A (Bacillus stearothermophilus); conditions: NEB4, 55 C, Mg2+; FI NEB1-3: >=120, >=250, >=16
[4] = target: T3, BamHI (Bacillus amyloliquefaciens) (UniProt P23940); conditions: NEB4, 37 C, Mg2+; FI NEB1-3: 4, 4, 32
T3 sequence: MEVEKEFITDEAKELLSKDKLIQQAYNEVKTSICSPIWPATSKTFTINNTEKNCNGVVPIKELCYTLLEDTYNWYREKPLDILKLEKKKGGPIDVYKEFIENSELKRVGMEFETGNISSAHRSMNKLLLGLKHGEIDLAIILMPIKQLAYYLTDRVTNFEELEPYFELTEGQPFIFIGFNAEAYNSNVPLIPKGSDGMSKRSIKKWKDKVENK

[5] = tested on: T4, SapI (Saccharopolyspora sp.); conditions: NEB4, 37 C, Mg2+; FI NEB1-3: 16, 64, 32
T4 sequence: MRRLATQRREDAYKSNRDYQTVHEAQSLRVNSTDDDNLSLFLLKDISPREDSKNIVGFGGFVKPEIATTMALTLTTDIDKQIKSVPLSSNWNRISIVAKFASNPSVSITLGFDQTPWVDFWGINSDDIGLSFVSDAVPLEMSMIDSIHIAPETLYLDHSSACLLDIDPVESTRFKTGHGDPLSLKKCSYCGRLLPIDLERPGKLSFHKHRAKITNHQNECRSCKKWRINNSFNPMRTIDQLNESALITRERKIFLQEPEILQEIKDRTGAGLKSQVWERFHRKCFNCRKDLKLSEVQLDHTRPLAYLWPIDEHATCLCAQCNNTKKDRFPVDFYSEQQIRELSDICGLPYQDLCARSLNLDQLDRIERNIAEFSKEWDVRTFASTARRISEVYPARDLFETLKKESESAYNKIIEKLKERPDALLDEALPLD

lambda phage DNA
activity (fidelity index) [1]: 16
activity (fidelity index) [2]: 4
activity (fidelity index) [3]: > 250
activity (fidelity index) [4]: 4
activity (fidelity index) [5]: 16

— patent US20130115678
